Where two headings read alike, the source gives them in different places.
Tests used:
PD-L1 (human) [1] = molecular target: PD-L1 (human) (UniProt Q9NZQ7)
CD28 (human) [2] = molecular target: CD28 (human) (UniProt P10747)
CD28 (human) [3] = molecular target: CD28 (human) (UniProt P10747); remark: listed apart in the source
PD-L1 (human) [4] = molecular target: PD-L1 (human) (UniProt Q9NZQ7); remark: listed apart in the source

Chain of PD-L1 (human) (Q9NZQ7 19-290): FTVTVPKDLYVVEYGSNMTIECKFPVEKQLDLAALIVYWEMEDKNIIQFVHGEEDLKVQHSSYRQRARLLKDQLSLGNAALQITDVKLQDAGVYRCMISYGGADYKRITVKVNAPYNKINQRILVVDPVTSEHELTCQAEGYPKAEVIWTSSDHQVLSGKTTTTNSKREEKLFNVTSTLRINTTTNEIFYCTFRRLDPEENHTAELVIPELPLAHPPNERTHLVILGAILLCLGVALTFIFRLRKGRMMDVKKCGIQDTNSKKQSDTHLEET

Substance | Jurkat/IL2 reporter RLU at 50 nM, K562/OKT3/PD-L1 aAPC (PD-L1 (human) [1]) [RLU] | Jurkat/IL2 reporter RLU at 50 nM, K562/OKT3/PD-L1 aAPC (CD28 (human) [2]) [RLU] | Jurkat/IL2 reporter RLU at 50 nM, K562/OKT3/PD-L1 aAPC (CD28 (human) [3]) [RLU] | Jurkat/IL2 reporter RLU at 50 nM, K562/OKT3/PD-L1 aAPC (PD-L1 (human) [4]) [RLU]
CD80 E35D/D46E/M47V/A71D IgV-Fc (inert) (Fc fusion) | 683 | 683 | – | –
CD80 E35D/L85Q/K93T/E95V/L97Q IgV-Fc (inert) (Fc fusion) | 315 | 315 | – | –
CD80 H18Y/A26E/E35D/M47L/L85Q/D90G IgV-Fc (inert) (Fc fusion) | 1510 | 1510 | – | –
CD80 V22L/Q27H/E35D/M47I/A71G IgV-Fc (inert) (Fc fusion) | 1120 | 1120 | – | –
CD80 Q27H/E35D/D46V/M47L/A71G IgV-Fc (inert) (Fc fusion) | 978 | 978 | – | –
WT CD80-ECD-Fc (effector) (Fc fusion) | – | 1790 | 3040 | –
CD80 A26E/Q33L/E35D/M47L/L85Q IgV-Fc (inert) (Fc fusion) | – | – | 416 | 416
CD80 Q33R/E35D/K37E/M47V/L85Q IgV-Fc (inert) (Fc fusion) | – | – | 464 | 464
CD80 A26E/Q33L/E35D/M47L IgV-Fc (inert) (Fc fusion) | – | – | 476 | 476
CD80 E35D/D46E/M47V/L97Q IgV-Fc (inert) (Fc fusion) | – | – | 1090 | 1090
CD80 Q33K/E35D/D46V/L85Q IgV-Fc (inert) (Fc fusion) | – | – | 504 | 504
CD80 E24D/Q33L/E35D/M47V/K54R/L85Q IgV-Fc (inert) (Fc fusion) | – | – | 3240 | 3240
CD80 Q33L/E35D/M47I IgV-Fc (inert) (Fc fusion) | – | – | 423 | 423
CD80 V22A/E23D/Q33L/E35D/M47V IgV-Fc (inert) (Fc fusion) | – | – | 390 | 390
CD80 Q33L/E35D/M43V/M47I/A71G IgV-Fc (inert) (Fc fusion) | – | – | 473 | 473
CD80 A26E/Q33R/E35D/M47L/L85Q/K86E IgV-Fc (inert) (Fc fusion) | – | – | 569 | 569
CD80 A26E/E35D/M43I/M47L/L85Q/K86E/R94W IgV-Fc (inert) (Fc fusion) | – | – | 498 | 498
CD80 Q27H/E35D/M47L/L85Q/R94Q/E95K IgV-Fc (inert) (Fc fusion) | – | – | 513 | 513
CD80 H18Y/E35D/V68M/L97Q IgV-Fc (inert) (Fc fusion) | – | – | 4340 | 4340
CD80 Q33L/E35D/M47V/T79A IgV-Fc (inert) (Fc fusion) | – | – | 527 | 527
CD80 Q33L/E35D/N48K/L85Q/L97Q IgV-Fc (inert) (Fc fusion) | – | – | 358 | 358
CD80 Q33R/E35D/D46E/M47I IgV-Fc (inert) (Fc fusion) | – | – | 522 | 522

Other lines, results leading:

Jurkat/IL2 reporter RLU at 50 nM, K562/OKT3/PD-L1 aAPC (PD-L1 (human) [1]) [RLU] | Jurkat/IL2 reporter RLU at 50 nM, K562/OKT3/PD-L1 aAPC (CD28 (human) [2]) [RLU] | Jurkat/IL2 reporter RLU at 50 nM, K562/OKT3/PD-L1 aAPC (CD28 (human) [3]) [RLU] | Jurkat/IL2 reporter RLU at 50 nM, K562/OKT3/PD-L1 aAPC (PD-L1 (human) [4]) [RLU] | Substance
215 | 215 | – | – | CD80 Q33R/E35D/M47V/N48K/L85M/F92L IgV-Fc (inert) (Fc fusion)
1440 | 1440 | – | – | CD80 E35D/M47V/N48K/V68M/K89N IgV-Fc (inert) (Fc fusion)
1310 | 1310 | – | – | CD80 Q27H/E35D/M47I/L85Q/D90G IgV-Fc (inert) (Fc fusion)
1120 | 1120 | – | – | CD80 E35D/T41S/M43I/A71G/D90G IgV-Fc (inert) (Fc fusion)
– | – | 551 | 551 | CD80 Q27H/Q33L/E35D/M47V/N55D/L85Q/K89N IgV-Fc (inert) (Fc fusion)
– | – | 3310 | 3310 | CD80 V22A/R29H/E35D/D46E/M47I IgV-Fc (inert) (Fc fusion)
– | – | 602 | 602 | CD80 E35D/M47I/K54R/L85E IgV-Fc (inert) (Fc fusion)
– | – | 481 | 481 | CD80 Q33L/E35D/T41S/M47V IgV-Fc (inert) (Fc fusion)
– | – | 2650 | 2650 | CD80 H18L/V22A/E35D/M47L/N48T/L85Q IgV-Fc (inert) (Fc fusion)
– | – | 556 | 556 | CD80 Q33L/E35D/M47V/L85Q IgV-Fc (inert) (Fc fusion)
– | – | 486 | 486 | CD80 H18Y/Q33L/E35D/M47I IgV-Fc (inert) (Fc fusion)
– | – | 393 | 393 | CD80 Q33L/E35D/M47V IgV-Fc (inert) (Fc fusion)
– | – | 500 | 500 | CD80 A26E/Q33R/E35D/M47L/L85Q IgV-Fc (inert) (Fc fusion)
– | – | 463 | 463 | CD80 Q33L/E35D/M47I/T62N/L85Q IgV-Fc (inert) (Fc fusion)
– | – | 473 | 473 | CD80 E35D/M47I/E77A/L85Q/R94W IgV-Fc (inert) (Fc fusion)
– | – | 2980 | 2980 | CD80 H18Y/E35D/M47L IgV-Fc (inert) (Fc fusion)
– | – | 408 | 408 | CD80 H18Y/A26E/Q33L/E35D/M47L/L85Q IgV-Fc (inert) (Fc fusion)
– | – | 566 | 566 | CD80 H18Y/V20A/Q33L/E35D/M47V/Y53F IgV-Fc (inert) (Fc fusion)
– | – | 1240 | 1240 | CD80 E7D/E35D/M47I/L97Q IgV-Fc (inert) (Fc fusion)
– | – | 572 | 572 | CD80 Q33L/E35D/M47L/V68M/L85Q/E88D IgV-Fc (inert) (Fc fusion)
